Experimental data published in patent US20230227568A1 (Pieris, published 2023).

B1: multimeric protein SEQ ID NO: 41 (designed binder)
chain: QDSTSDLIPAPPLSKVPLQQNFQDNQFHGKWYVVGQAGNIRLREDKDPIKMMATIYELKEDKSYDVTMVKFDDKKCMYDIWTFVPGSQPGEFTLGKIKSFPGHTSSLVRVVSTNYNQHAMVFFKFVFQNREEFYITLYGRTKELTSELKENFIRFSKSLGLPENHIVFPVPIDQCIDGGSPTPTPTTPTPTPTGVRLWATRQAMLGQVHEVPEGWLIFVAEQEELYVRVQNGFRKVQLEARTPLGGSGGAPEQKLISEEDLGSHHHHHHHHHH
B2: multimeric protein SEQ ID NO: 49 (designed binder)
chain: QDSTSDLIPAPPLSKVPLQQNFQDNQFHGKWYVVGQAGNIRLREDKDPIKMMATIYELKEDKSYDVTMVKFDDKKCMYDIWTFVPGSQPGEFTLGKIKSFPGHTSSLVRVVSTNYNQHAMVFFKFVFQNREEFYITLYGRTKELTSELKENFIRFSKSLGLPENHIVFPVPIDQCIDGGGGGSGVRLWATRQAMLGQVHEVPEGWLIFVAEQEELYVRVQNGFRKVQLEARTPLGGGGSGGGGSGGGGSQDSTSDLIPAPPLSKVPLQQNFQDNQFHGKWYVVGQAGNIRLREDKDPIKMMATIYELKEDKSYDVTMVKFDDKKCMYDIWTFVPGSQPGEFTLGKIKSFPGHTSSLVRVVSTNYNQHAMVFFKFVFQNREEFYITLYGRTKELTSELKENFIRFSKSLGLPENHIVFPVPIDQCIDGGGSGGAPEQKLISEEDLGSHHHHHHHHHH
B3: multimeric protein SEQ ID NO: 48 (designed binder)
chain: QDSTSDLIPAPPLSKVPLQQNFQDNQFHGKWYVVGQAGNIRLREDKDPIKMMATIYELKEDKSYDVTMVKFDDKKCMYDIWTFVPGSQPGEFTLGKIKSFPGHTSSLVRVVSTNYNQHAMVFFKFVFQNREEFYITLYGRTKELTSELKENFIRFSKSLGLPENHIVFPVPIDQCIDGGGGGSGGGGSGGGGSGVRLWATRQAMLGQVHEVPEGWLIFVAEQEELYVRVQNGFRKVQLEARTPLGGGGSGGGGSGGGGSQDSTSDLIPAPPLSKVPLQQNFQDNQFHGKWYVVGQAGNIRLREDKDPIKMMATIYELKEDKSYDVTMVKFDDKKCMYDIWTFVPGSQPGEFTLGKIKSFPGHTSSLVRVVSTNYNQHAMVFFKFVFQNREEFYITLYGRTKELTSELKENFIRFSKSLGLPENHIVFPVPIDQCIDGGGSGGAPEQKLISEEDLGSHHHHHHHHHH
B4: multimeric protein SEQ ID NO: 38 (designed binder)
chain: QDSTSDLIPAPPLSKVPLQQNFQDNQFHGKWYVVGQAGNIRLREDKDPIKMMATIYELKEDKSYDVTMVKFDDKKCMYDIWTFVPGSQPGEFTLGKIKSFPGHTSSLVRVVSTNYNQHAMVFFKFVFQNREEFYITLYGRTKELTSELKENFIRFSKSLGLPENHIVFPVPIDQCIDGGGGGSGGGGSGGGGSGVRLWATRQAMLGQVHEVPEGWLIFVAEQEELYVRVQNGFRKVQLEARTPLGGSGGAPEQKLISEEDLGSHHHHHHHHHH
notes: Trivalent; Self-assembled from its monomer polypeptides
B5: multimeric protein SEQ ID NO: 39 (designed binder)
chain: QDSTSDLIPAPPLSKVPLQQNFQDNQFHGKWYVVGQAGNIRLREDKDPIKMMATIYELKEDKSYDVTMVKFDDKKCMYDIWTFVPGSQPGEFTLGKIKSFPGHTSSLVRVVSTNYNQHAMVFFKFVFQNREEFYITLYGRTKELTSELKENFIRFSKSLGLPENHIVFPVPIDQCIDGGGGGSGVRLWATRQAMLGQVHEVPEGWLIFVAEQEELYVRVQNGFRKVQLEARTPLGGSGGAPEQKLISEEDLGSHHHHHHHHHH
B6: multimeric protein SEQ ID NO: 42 (designed binder)
chain: QDSTSDLIPAPPLSKVPLQQNFQDNQFHGKWYVVGQAGNIRLREDKDPIKMMATIYELKEDKSYDVTMVKFDDKKCMYDIWTFVPGSQPGEFTLGKIKSFPGHTSSLVRVVSTNYNQHAMVFFKFVFQNREEFYITLYGRTKELTSELKENFIRFSKSLGLPENHIVFPVPIDQCIDGAEAAAKEAAAKEAAAKAGVRLWATRQAMLGQVHEVPEGWLIFVAEQEELYVRVQNGFRKVQLEARTPLGGSGGAPEQKLISEEDLGSHHHHHHHHHH
B7: multimeric protein SEQ ID NO: 44 (designed binder)
chain: GVRLWATRQAMLGQVHEVPEGWLIFVAEQEELYVRVQNGFRKVQLEARTPLGGGGSQDSTSDLIPAPPLSKVPLQQNFQDNQFHGKWYVVGQAGNIRLREDKDPIKMMATIYELKEDKSYDVTMVKFDDKKCMYDIWTFVPGSQPGEFTLGKIKSFPGHTSSLVRVVSTNYNQHAMVFFKFVFQNREEFYITLYGRTKELTSELKENFIRFSKSLGLPENHIVFPVPIDQCIDGGGSGGAPEQKLISEEDLGSHHHHHHHHHH
B8: multimeric protein SEQ ID NO: 47 (designed binder)
chain: QDSTSDLIPAPPLSKVPLQQNFQDNQFHGKWYVVGQAGNIRLREDKDPIKMMATIYELKEDKSYDVTMVKFDDKKCMYDIWTFVPGSQPGEFTLGKIKSFPGHTSSLVRVVSTNYNQHAMVFFKFVFQNREEFYITLYGRTKELTSELKENFIRFSKSLGLPENHIVFPVPIDQCIDGGGGGSGGGGSGGGGSKPLDGEYFTLQIRGRERFEMFRELNEALELKDAQAGKEPGGSGGAPEQKLISEEDLGSHHHHHHHHHH
B9: multimeric protein SEQ ID NO: 43 (designed binder)
chain: GVRLWATRQAMLGQVHEVPEGWLIFVAEQEELYVRVQNGFRKVQLEARTPLGGGGSGGGGSGGGGSQDSTSDLIPAPPLSKVPLQQNFQDNQFHGKWYVVGQAGNIRLREDKDPIKMMATIYELKEDKSYDVTMVKFDDKKCMYDIWTFVPGSQPGEFTLGKIKSFPGHTSSLVRVVSTNYNQHAMVFFKFVFQNREEFYITLYGRTKELTSELKENFIRFSKSLGLPENHIVFPVPIDQCIDGGGSGGAPEQKLISEEDLGSHHHHHHHHHH

Assays:
[1] = target: T1, human 4-1BB on cells (human, UniProt Q07011 24-255); assay: flow cytometry, Flp-In-CHO::hu4-1BB cells
T1 construct: whole, on cells; Stably transfected CHO cells (flow cytometry) and bought Jurkat reporter cells (bioassay); also called Flp-In-CHO::hu4-1BB; human 4-1BB-expressing CHO cells
T1 sequence (Q07011 24-255): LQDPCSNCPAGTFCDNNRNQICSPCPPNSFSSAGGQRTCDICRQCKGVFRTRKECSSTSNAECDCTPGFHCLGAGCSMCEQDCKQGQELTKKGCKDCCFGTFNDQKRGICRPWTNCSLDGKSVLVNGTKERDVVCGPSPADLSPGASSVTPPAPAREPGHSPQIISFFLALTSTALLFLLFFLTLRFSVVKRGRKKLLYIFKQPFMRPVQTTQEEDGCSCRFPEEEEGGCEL
Method: (§1) CHO cells were stably transfected with human 4-1BB, cynomolgus 4-1BB, or a mock control using the Flp-In system (Life Technologies) according to the manufacturer's instructions. Transfected CHO cells were maintained in Ham's F12 medium (Life Technologies) supplemented with 10% Fetal Calf Serum (Biochrom) and 500 μg/ml Hygromycin B (Roth). Cells were cultured in cell culture flasks according to manufacturer's instruction (37° C., 5% CO₂ atmosphere).
(§2) 5×10⁴ cells per well were incubated for 1 h in ice-cold PBS containing 5% fetal calf serum (PBS-FCS). A dilution series of the tested multimeric proteins (SEQ ID NOs: 38-44 and 46-55), the 4-1BB-targeting lipocalin mutein as included in the multimeric proteins (SEQ ID NO: 64) or the GPC3-targeting lipocalin SEQ ID NO: 90 were added to the cells and incubated for 1 h on ice. Cells were washed twice with PBS and then incubated with a rabbit anti-NGAL or a goat anti-human IgG labeled with fluorescent dye Alexa 488 for 30 min on ice. Human IgG4 isotype (SEQ ID NOs: 29 and 30) and lipocalin mutein SEQ ID NO: 8 were tested as a negative control. Cells were subsequently washed and analyzed using iQue Flow cytometer (Intellicyte Screener). Mean geometric fluorescent signals were plotted and fitted with Graphpad software using nonlinear regression (shared bottom, four parameters, variable slope).

[2] = target: T2, cynomolgus 4-1BB on CHO cells (cynomolgus, UniProt A9YYE7 24-254); assay: flow cytometry, Flp-In-CHO::cyno4-1BB cells
T2 construct: also called Flp-In-CHO::cyno4-1BB; cynomolgus 4-1BB-expressing CHO cells
T2 sequence (A9YYE7 entry or part of it limits assumed): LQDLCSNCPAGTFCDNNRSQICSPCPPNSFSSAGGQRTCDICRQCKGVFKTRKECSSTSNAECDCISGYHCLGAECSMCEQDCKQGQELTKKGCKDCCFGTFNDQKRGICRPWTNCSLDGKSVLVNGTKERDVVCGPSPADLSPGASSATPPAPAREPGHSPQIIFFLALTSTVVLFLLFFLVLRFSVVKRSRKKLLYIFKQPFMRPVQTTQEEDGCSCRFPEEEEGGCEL
Method: as §1, §2

[3] = target: T3, recombinant hu4-1BB-His (human 4-1BB with a C-terminal polyhistidine tag, R&D Systems) (human, UniProt Q07011 24-186); assay: ELISA, hu4-1BB-His coated, detection anti-NGAL-HRP
T3 construct: Bought; not shown: C-terminal polyhistidine tag
Method: Recombinant hu4-1BB-His (human 4-1BB with a C-terminal polyhistidine tag, R&D Systems) at the concentration of 1 μg/mL in PBS was coated overnight on microtiter plates at 4° C. After washing with PBS-0.05% T (PBS supplemented with 0.05% (v/v) Tween 20), the plates were blocked with 2% BSA (w/v) in PBS-0.1% T (PBS supplemented with 0.1% (v/v) Tween 20) for 1 h at room temperature. After washing with 100 μL PBS-0.05% T five times, exemplary multimeric proteins (SEQ ID NOs: 38-44 and 46-53) or 4-1BB-specific lipocalin mutein as included in the multimeric protein (SEQ ID NO: 64) at different concentrations, ranging from 100 to 0.002 nM, were added to the wells and incubated for 1 h at room temperature, followed by another wash step. Bound molecules under study were detected by incubation with 1:1000 diluted anti-NGAL-HRP in PBS-0.1% T-2% BSA. After an additional wash step, fluorogenic HRP substrate (QuantaBlu, Thermo) was added to each well and the fluorescence intensity was detected using a fluorescence microplate reader.
The results of exemplary experiments are depicted in FIG. 2, together with the fit curves resulting from a 1:1 binding sigmoidal fit, where the EC₅₀ value and the maximum signal were free parameters, and the slope was fixed to one. The observed EC₅₀ values toward the hu4-1BB of all tested multimeric proteins were in the sub nanomolar range.

[4] = target: T4, hu4-1BB-Fc (R&D Systems) (human, UniProt Q07011 24-186); assay: SPR (Biacore 8K), hu4-1BB-Fc captured by anti-human IgG Fc; apparent value, 1:1 fit
T4 construct: Bought; also called human 4-1BB; not shown: human IgG Fc of the bought fusion
Method: The anti-human IgG Fc antibody (GE Healthcare) was immobilized on a CM5 sensor chip using standard amine chemistry: the carboxyl groups on the chip were activated using 1-ethyl-3-(3-dimethylaminopropyl)-carbodiimide (EDC) and N-hydroxysuccinimide (NHS). Subsequently, anti-human IgG Fc antibody solution (GE Healthcare) at a concentration of 25 μg/mL in 10 mM sodium acetate (pH 5.0) was applied at a flow rate of 5 μL/min until an immobilization level of 4000-10000 resonance units (RU) was achieved. Residual non-reacted NHS-esters were blocked by passing a solution of 1 M ethanolamine across the surface. The reference channel was treated in an analogous manner. Subsequently, hu4-1BB-Fc (R&D Systems) at 0.3 μg/mL was captured by the anti-human IgG-Fc antibody at the chip surface for 180 s at a flow rate of 10 μL/min.
The binding assay was carried out with a contact time of 180 s, a dissociation time of 1200 s or 3000 s and a flow rate of 30 μL/min. All measurements were performed at 25° C. Lipocalin mutein SEQ ID NO: 64 as included in the multimeric proteins was also tested as […]. […] Prior to the protein measurements, three startup cycles were performed for conditioning purposes. Data were evaluated with Biacore Evaluation software. Double referencing was used and the 1:1 binding model was used to fit the raw data.

[5] = target: T1, human 4-1BB on cells; assay: cell-based or functional assay

| Binder | EC50 [1] [pM] | EC50 [2] [pM] | EC50 [3] [pM] | Kd [4] [pM] | koff [4] [s⁻¹] | kon [4] [M⁻¹ s⁻¹] | EC50 [nM], 4-1BB bioassay (NFκB-luc2/4-1BB Jurkat luminescence), with HepG2 cells [5] [nM] |
| --- | --- | --- | --- | --- | --- | --- | --- |
| B1 | 7370 | 5630 | 190 | 310 | 2.07e-05 | 66200 | – |
| B2 | 4990 | 2750 | 130 | 210 | 1.91e-05 | 90200 | 0.9 |
| B3 | 2980 | 2830 | 100 | 340 | 2.76e-05 | 81600 | 0.82 |
| B4 | 4890 | 5920 | 160 | 250 | 2.22e-05 | 89200 | – |
| B5 | 5870 | 3680 | 240 | 380 | 2.63e-05 | 68800 | – |
| B6 | 8500 | 6590 | 260 | 280 | 1.74e-05 | 61300 | – |
| B7 | 6640 | 5030 | 220 | 240 | 2.07e-05 | 87500 | – |
| B8 | 3810 | 3810 | 100 | 660 | 6.52e-05 | 98700 | – |
| B9 | – | – | 160 | 390 | 4.42e-05 | 114000 | – |
